The test system of one experiment is ADGRG2. To be noted: steroid hormones; endogenous; ref [23]; cited from earlier work. An excerpt: Stachel (sequence: TSFGILLDLSRTSLP, with individual residues numbered from ss01 to ss15, where “ss” denotes Stachel sequence) is a key functional element of ADGRG2, playing a critical role in regulating the conformation and function of the receptor [8]. The Stachel sequence plays a pivotal role in receptor activation by mediating ligand binding and initiating the conformational changes required for signal transduction, highlighting its biological significance. In previous studies, the wild-type ADGRG2 Stachel sequence-derived peptidic agonist, VPM, was found t ... || Figure 1 Structural and binding analysis of ADGRG2 with agonists and antagonists. (A) Structure of ADGRG2, highlighting key domains involved in ligand binding. Identified agonists (DHEA, DHEAS, IP15) and antagonists (DOC, F601D, F601E) are labeled. […] (B) Schematic representation of metadynamics simulations and ligand binding assay conducted to investigate the binding mechanisms of antagonists F601D, F601E, and DOC to ADGRG2. (C) Structural representation of ADGRG2 in complex wi ...

In the next experiment the target is DOC. The experiment can be described thus: BRET-based binding assay. Conditions: parent: est. -7.3; read off a plot.
For experiment [1], the system named is ADGRG2 (Nluc-ADGRG2 and its alanine mutants). The experiment can be described thus: FlAsh-BRET / BRET-based ligand binding assay with ADGRG2 mutants. Conditions: HEK293, competition with 50 μM IP15–FITC, 10^−9 to 10^−4 M competitor, HBSS, 40 min at 37 °C; mean ± SEM, n = 3. Here is the method:
HEK293 cells were transiently transfected with plasmids for Nluc-ADGRG2 and its various mutants (ADGRG2-T624A, ADGRG2-C628A, ADGRG2-N668A, ADGRG2-Y758A, ADGRG2-K760A, ADGRG2-D768A, ADGRG2-N773A, ADGRG2-N775A, ADGRG2-N849A, ADGRG2-N860A). The cells were plated at a density of 3 × 10^4 per well in a black 96-well plate and cultured for 48 h at 37 °C with 5% CO2. To assess saturation binding, increasing concentrations of FITC-labeled IP15 (IP15–FITC) were added, alongside or without 300 μM of unlabeled IP15, for a 40-min incubation at 37 °C. For competitive binding assays, cells were treated with 50 μM IP15–FITC and varying concentrations (10^−9 to 10^−4 M) of competing peptides in HBSS buffer (containing 25 mM HEPES, 10 mM glucose, 146 mM NaCl, 5 mM KCl, 1 mM MgSO4, 2 mM sodium pyruvate, and 1.3 mM CaCl2) for 40 min at 37 °C. Coelenterazine H (final concentration of 5 μM, Promega) was added just before measuring BRET signals using a Mithras LB 940 Multimode Microplate Reader. Light emissions were recorded at 460 nm (80 nm bandpass) and 535 nm (60 nm bandpass) for IP15–FITC, and the raw BRET ratio was calculated as the 535 nm emission divided by the 460 nm emission.
For orientation: BRET reads energy transfer from a luciferase to a nearby fluorophore.

Another experiment deals with T1, VPM-F601E, Q8CJ12.
T1 chain: TSEGILLDLSRTSLP
The experiment can be described thus: BRET-based binding assay. Conditions: chain shown with the change;, read off a plot.

A further experiment deals with T2, VPM-F601D, Q8CJ12.
T2 chain: TSDGILLDLSRTSLP
The experiment can be described thus: BRET-based binding assay. Conditions: chain shown with the change;; parent: est. -8.0; read off a plot.

A word on the IC50: it is the midpoint of a concentration-inhibition curve.

For the molecule `C[C@]12CC[C@H](O)CC1=CC[C@@H]1[C@@H]2CC[C@]2(C)C(=O)CC[C@@H]12` [DHEA, dehydroepiandrosterone], the “activity on ADGRG2 (agonist or antagonist)” value (shortened to “activity on ADGRG2”) with ADGRG2 is reported as “endogenous agonists”. As for `C[C@]12CC[C@H](OS(=O)(=O)O)CC1=CC[C@@H]1[C@@H]2CC[C@]2(C)C(=O)CC[C@@H]12` [DHEAS], the “activity on ADGRG2” value with ADGRG2 is listed as “endogenous agonists”. With “Nluc-ADGRG2 (wild type) (from UniProt Q8CJ12) D768A”, in the experiment with DOC, the IC50 is -5.9 log10(M). Same read-out and setting: under “Nluc-ADGRG2 (wild type) (from UniProt Q8CJ12) K760A” stands -5.6 log10(M). deoxycorticosterone [DOC]: the “activity on ADGRG2” value in the experiment on ADGRG2 was “endogenous antagonist”. In experiment [1], the “binding to ADGRG2 with mutated polar residues (C628, N668, K760, D768, N860)” value is “significantly weakened DOC’s ability to bind to ADGRG2”.

B1: Nluc-ADGRG2 (wild type), Q8CJ12 Y758A (protein)
chain: LKENGNSSLLSPSAESSLVSLIPYSNGTPDAASEVLSTLNKTEKSKITIVKTFNASGVKSQRNICNLSSLCNDSVFFRGEIVFQHDEDHNVTQNQDTANGTFAGVLSLSELKRSELNKTLQTLSETYFIVCATAEAQSTVNCTFTVKLNETMNVCAMMVTFQTVQIRPMEQCCCSPRTPCPSSPEELEKLQCELQDPIVCLADQPHGPPLSSSSKPVVPQATIISHVASDFSLAEPLDHALMTPSTPSLTQESNLPSPQPTIPLASSPATDLPVQSVVVSSLPQTDLSHTLSPVQSSIPSPTTPAPSVPTELVTISTPPGETVVNTSTVSDLEAQVSQMEKALSLGSLEPNLAGEMVNRVSKLLHSPPALLAPLAQRLLKVVDAIGLQLNFSSTTISLTSPSLALAVIRVNASNFNTTTFAAQDPTNLQVSLETPPPENSIGAITLPSSLMNNLPANDVELASRIQFNFFETPALFQDPSLENLTLISYVISSSVTNMTIKNLTRNVTVALKHINPSPDDLTVKCVFWDLGRNGGKGGWSSDGCSVKDKRMNETICTCSHLTSFGILLDLSRTSLPPSQMMALTFITYIGCGLSSIFLSVTLVTYIAFEKIRRDYPSKILIQLCAALLLLNLIFLLDSWIALYNTRGFCIAVAVFLHYFLLVSFTWMGLEAFHMYLALVKVFNTYIRKYILKFCIVGWGIPAVVVSIVLTISPDNYGIGSAGKFPNGTPDDFCWINSNVVFYITVVGYFCVIFLLNVSMFIVVLVQLCRIKKKKQLGAQRKTSIQDLRSIAGLTFLLGITWGFAFFAWGPVNVTFMYLFAIFNTLQGFFIFIFYCAAKENVRKQWRRYLCCGKL
In the case of B1, the IC50 with VPM-F601E, Q8CJ12 (parent: est. -8.5) was -7.1 log10(M).

B2: Nluc-ADGRG2 (wild type), Q8CJ12 N775A (protein)
chain: LKENGNSSLLSPSAESSLVSLIPYSNGTPDAASEVLSTLNKTEKSKITIVKTFNASGVKSQRNICNLSSLCNDSVFFRGEIVFQHDEDHNVTQNQDTANGTFAGVLSLSELKRSELNKTLQTLSETYFIVCATAEAQSTVNCTFTVKLNETMNVCAMMVTFQTVQIRPMEQCCCSPRTPCPSSPEELEKLQCELQDPIVCLADQPHGPPLSSSSKPVVPQATIISHVASDFSLAEPLDHALMTPSTPSLTQESNLPSPQPTIPLASSPATDLPVQSVVVSSLPQTDLSHTLSPVQSSIPSPTTPAPSVPTELVTISTPPGETVVNTSTVSDLEAQVSQMEKALSLGSLEPNLAGEMVNRVSKLLHSPPALLAPLAQRLLKVVDAIGLQLNFSSTTISLTSPSLALAVIRVNASNFNTTTFAAQDPTNLQVSLETPPPENSIGAITLPSSLMNNLPANDVELASRIQFNFFETPALFQDPSLENLTLISYVISSSVTNMTIKNLTRNVTVALKHINPSPDDLTVKCVFWDLGRNGGKGGWSSDGCSVKDKRMNETICTCSHLTSFGILLDLSRTSLPPSQMMALTFITYIGCGLSSIFLSVTLVTYIAFEKIRRDYPSKILIQLCAALLLLNLIFLLDSWIALYNTRGFCIAVAVFLHYFLLVSFTWMGLEAFHMYLALVKVFNTYIRKYILKFCIVGWGIPAVVVSIVLTISPDNYGIGSYGKFPNGTPDDFCWINSAVVFYITVVGYFCVIFLLNVSMFIVVLVQLCRIKKKKQLGAQRKTSIQDLRSIAGLTFLLGITWGFAFFAWGPVNVTFMYLFAIFNTLQGFFIFIFYCAAKENVRKQWRRYLCCGKL
Take B2: the IC50 with VPM-F601D, Q8CJ12 was -7.6 log10(M); with VPM-F601E, Q8CJ12 (parent: est. -8.1) it was -5.4 log10(M).

B3: Nluc-ADGRG2 (wild type), Q8CJ12 N773A (protein)
chain: LKENGNSSLLSPSAESSLVSLIPYSNGTPDAASEVLSTLNKTEKSKITIVKTFNASGVKSQRNICNLSSLCNDSVFFRGEIVFQHDEDHNVTQNQDTANGTFAGVLSLSELKRSELNKTLQTLSETYFIVCATAEAQSTVNCTFTVKLNETMNVCAMMVTFQTVQIRPMEQCCCSPRTPCPSSPEELEKLQCELQDPIVCLADQPHGPPLSSSSKPVVPQATIISHVASDFSLAEPLDHALMTPSTPSLTQESNLPSPQPTIPLASSPATDLPVQSVVVSSLPQTDLSHTLSPVQSSIPSPTTPAPSVPTELVTISTPPGETVVNTSTVSDLEAQVSQMEKALSLGSLEPNLAGEMVNRVSKLLHSPPALLAPLAQRLLKVVDAIGLQLNFSSTTISLTSPSLALAVIRVNASNFNTTTFAAQDPTNLQVSLETPPPENSIGAITLPSSLMNNLPANDVELASRIQFNFFETPALFQDPSLENLTLISYVISSSVTNMTIKNLTRNVTVALKHINPSPDDLTVKCVFWDLGRNGGKGGWSSDGCSVKDKRMNETICTCSHLTSFGILLDLSRTSLPPSQMMALTFITYIGCGLSSIFLSVTLVTYIAFEKIRRDYPSKILIQLCAALLLLNLIFLLDSWIALYNTRGFCIAVAVFLHYFLLVSFTWMGLEAFHMYLALVKVFNTYIRKYILKFCIVGWGIPAVVVSIVLTISPDNYGIGSYGKFPNGTPDDFCWIASNVVFYITVVGYFCVIFLLNVSMFIVVLVQLCRIKKKKQLGAQRKTSIQDLRSIAGLTFLLGITWGFAFFAWGPVNVTFMYLFAIFNTLQGFFIFIFYCAAKENVRKQWRRYLCCGKL
Take B3: the IC50 with VPM-F601D, Q8CJ12 was -6.2 log10(M).

B4: Nluc-ADGRG2 (wild type), Q8CJ12 K760A (protein)
chain: LKENGNSSLLSPSAESSLVSLIPYSNGTPDAASEVLSTLNKTEKSKITIVKTFNASGVKSQRNICNLSSLCNDSVFFRGEIVFQHDEDHNVTQNQDTANGTFAGVLSLSELKRSELNKTLQTLSETYFIVCATAEAQSTVNCTFTVKLNETMNVCAMMVTFQTVQIRPMEQCCCSPRTPCPSSPEELEKLQCELQDPIVCLADQPHGPPLSSSSKPVVPQATIISHVASDFSLAEPLDHALMTPSTPSLTQESNLPSPQPTIPLASSPATDLPVQSVVVSSLPQTDLSHTLSPVQSSIPSPTTPAPSVPTELVTISTPPGETVVNTSTVSDLEAQVSQMEKALSLGSLEPNLAGEMVNRVSKLLHSPPALLAPLAQRLLKVVDAIGLQLNFSSTTISLTSPSLALAVIRVNASNFNTTTFAAQDPTNLQVSLETPPPENSIGAITLPSSLMNNLPANDVELASRIQFNFFETPALFQDPSLENLTLISYVISSSVTNMTIKNLTRNVTVALKHINPSPDDLTVKCVFWDLGRNGGKGGWSSDGCSVKDKRMNETICTCSHLTSFGILLDLSRTSLPPSQMMALTFITYIGCGLSSIFLSVTLVTYIAFEKIRRDYPSKILIQLCAALLLLNLIFLLDSWIALYNTRGFCIAVAVFLHYFLLVSFTWMGLEAFHMYLALVKVFNTYIRKYILKFCIVGWGIPAVVVSIVLTISPDNYGIGSYGAFPNGTPDDFCWINSNVVFYITVVGYFCVIFLLNVSMFIVVLVQLCRIKKKKQLGAQRKTSIQDLRSIAGLTFLLGITWGFAFFAWGPVNVTFMYLFAIFNTLQGFFIFIFYCAAKENVRKQWRRYLCCGKL
Take B4: the IC50 is -7.7 log10(M) with VPM-F601D, Q8CJ12 and -7 log10(M) with VPM-F601E, Q8CJ12 (parent: est. -8.5).

B5: Nluc-ADGRG2 (wild type), Q8CJ12 N849A (protein)
chain: LKENGNSSLLSPSAESSLVSLIPYSNGTPDAASEVLSTLNKTEKSKITIVKTFNASGVKSQRNICNLSSLCNDSVFFRGEIVFQHDEDHNVTQNQDTANGTFAGVLSLSELKRSELNKTLQTLSETYFIVCATAEAQSTVNCTFTVKLNETMNVCAMMVTFQTVQIRPMEQCCCSPRTPCPSSPEELEKLQCELQDPIVCLADQPHGPPLSSSSKPVVPQATIISHVASDFSLAEPLDHALMTPSTPSLTQESNLPSPQPTIPLASSPATDLPVQSVVVSSLPQTDLSHTLSPVQSSIPSPTTPAPSVPTELVTISTPPGETVVNTSTVSDLEAQVSQMEKALSLGSLEPNLAGEMVNRVSKLLHSPPALLAPLAQRLLKVVDAIGLQLNFSSTTISLTSPSLALAVIRVNASNFNTTTFAAQDPTNLQVSLETPPPENSIGAITLPSSLMNNLPANDVELASRIQFNFFETPALFQDPSLENLTLISYVISSSVTNMTIKNLTRNVTVALKHINPSPDDLTVKCVFWDLGRNGGKGGWSSDGCSVKDKRMNETICTCSHLTSFGILLDLSRTSLPPSQMMALTFITYIGCGLSSIFLSVTLVTYIAFEKIRRDYPSKILIQLCAALLLLNLIFLLDSWIALYNTRGFCIAVAVFLHYFLLVSFTWMGLEAFHMYLALVKVFNTYIRKYILKFCIVGWGIPAVVVSIVLTISPDNYGIGSYGKFPNGTPDDFCWINSNVVFYITVVGYFCVIFLLNVSMFIVVLVQLCRIKKKKQLGAQRKTSIQDLRSIAGLTFLLGITWGFAFFAWGPVAVTFMYLFAIFNTLQGFFIFIFYCAAKENVRKQWRRYLCCGKL
B5: the IC50 in the experiment with VPM-F601D, Q8CJ12 was -7.9 log10(M).

Values taken from PMC11719512, “Exploring the Binding Mechanism of ADGRG2 Through Metadynamics and Biochemical Analysis” (International Journal of Molecular Sciences, 2024).
